Measured values from patent US20260008817A1, “CYCLIC PEPTIDE OR SALT THEREOF, AND USES THEREOF” (FUJIFILM Corporation, priority 2023, published 2026).
Positions of bridges follow the written chain, without caps; N, C: chain ends. No end group written: not given here. COCH2 = acetyl group that carries the bridge

Target: T1, Recombinant Human FGFR1 alpha (IIIc) Fc Chimera Protein (Homo sapiens, UniProt P11362)
T1 construct: purchased R&D systems 658-FR-050
Assay: ELISA binding affinity of enzymatically synthesized peptide to FGFR
Conditions: ELISA luminescence signal at 10 nmol/L peptide, SEQ ID NO: 239 standardized to 1; enzyme synthesis product
How it was run: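 Cell-free PUREfrex-translated cyclic peptides (Myc/HiBiT-tagged, quantified by HiBiT luminescence) bound 3 h at room temperature to immobilized FGFR1α(IIIc)-Fc, detected with anti-Myc and chemiluminescence. FGFR-specific signal at 10 nmol/L normalized to a reference cyclic peptide and graded A–D.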

T1 sequence (P11362 with tags, fused parts or gaps limits assumed): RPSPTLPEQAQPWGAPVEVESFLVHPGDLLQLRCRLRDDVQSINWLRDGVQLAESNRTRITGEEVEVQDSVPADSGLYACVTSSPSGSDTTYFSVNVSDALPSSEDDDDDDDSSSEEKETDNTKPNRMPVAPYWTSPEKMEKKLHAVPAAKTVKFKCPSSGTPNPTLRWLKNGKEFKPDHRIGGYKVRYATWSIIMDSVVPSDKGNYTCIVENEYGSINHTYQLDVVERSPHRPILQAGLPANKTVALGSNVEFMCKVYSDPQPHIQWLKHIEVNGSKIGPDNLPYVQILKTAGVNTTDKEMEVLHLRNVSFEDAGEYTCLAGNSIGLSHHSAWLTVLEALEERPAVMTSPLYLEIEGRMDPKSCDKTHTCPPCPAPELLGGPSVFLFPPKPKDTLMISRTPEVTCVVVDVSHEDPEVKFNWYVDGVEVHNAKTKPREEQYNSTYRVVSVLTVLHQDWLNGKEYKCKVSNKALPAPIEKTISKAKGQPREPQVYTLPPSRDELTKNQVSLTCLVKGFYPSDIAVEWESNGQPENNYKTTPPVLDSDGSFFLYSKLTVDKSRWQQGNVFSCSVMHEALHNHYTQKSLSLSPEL

Substance | Evaluation result of binding affinity to FGFR
130 (ICVYTFDAHHHSLHAALTKI; Description of Artificial Sequence: Cyclic peptide) [compound 130] | C (0.1 or more and less than 0.5)
131 (ICVYTFDAHAASLHAALTKI; Description of Artificial Sequence: Cyclic peptide) [compound 131] | A (0.7 or more)
132 (ICVYTFDAHAGSLHAALTKI; Description of Artificial Sequence: Cyclic peptide) [compound 132] | A (0.7 or more)
133 (ICVYTFDAHAPSLHAALTKI; Description of Artificial Sequence: Cyclic peptide) [compound 133] | A (0.7 or more)
134 (ICVYTFDAHALSLHAALTKI; Description of Artificial Sequence: Cyclic peptide) [compound 134] | A (0.7 or more)
135 (ICVYTFDAHAISLHAALTKI; Description of Artificial Sequence: Cyclic peptide) [compound 135] | B (0.5 or more and less than 0.7)
136 (ICVYTFDAHAVSLHAALTKI; Description of Artificial Sequence: Cyclic peptide) [compound 136] | A (0.7 or more)
137 (ICVYTFDAHAFSLHAALTKI; Description of Artificial Sequence: Cyclic peptide) [compound 137] | C (0.1 or more and less than 0.5)
138 (ICVYTFDAHAYSLHAALTKI; Description of Artificial Sequence: Cyclic peptide) [compound 138] | C (0.1 or more and less than 0.5)
139 (ICVYTFDAHAWSLHAALTKI; Description of Artificial Sequence: Cyclic peptide) [compound 139] | C (0.1 or more and less than 0.5)
140 (ICVYTFDAHANSLHAALTK(COCH2)I; thioether 2-19 (inferred)) [compound 140] | A (0.7 or more)
141 (ICVYTFDAHAQSLHAALTK(COCH2)I; thioether 2-19 (inferred)) [compound 141] | A (0.7 or more)
142 (ICVYTFDAHASSLHAALTK(COCH2)I; thioether 2-19 (inferred)) [compound 142] | A (0.7 or more)
143 (ICVYTFDAHATSLHAALTK(COCH2)I; thioether 2-19 (inferred)) [compound 143] | A (0.7 or more)
144 (ICVYTFDAHADSLHAALTK(COCH2)I; thioether 2-19 (inferred)) [compound 144] | A (0.7 or more)
145 (ICVYTFDAHAESLHAALTK(COCH2)I; thioether 2-19 (inferred)) [compound 145] | A (0.7 or more)
146 (ICVYTFDAHARSLHAALTK(COCH2)I; thioether 2-19 (inferred)) [compound 146] | A (0.7 or more)
147 (ICVYTFDAHAHALHAALTK(COCH2)I; thioether 2-19 (inferred)) [compound 147] | B (0.5 or more and less than 0.7)
148 (ICVYTFDAHAHGLHAALTK(COCH2)I; thioether 2-19 (inferred)) [compound 148] | C (0.1 or more and less than 0.5)

Substance | Evaluation result of binding affinity to FGFR
149 (ICVYTFDAHAHLLHAALTK(COCH2)I; thioether 2-19 (inferred)) [compound 149] | C (0.1 or more and less than 0.5)
150 (ICVYTFDAHAHILHAALTK(COCH2)I; thioether 2-19 (inferred)) [compound 150] | C (0.1 or more and less than 0.5)
151 (ICVYTFDAHAHVLHAALTK(COCH2)I; thioether 2-19 (inferred)) [compound 151] | C (0.1 or more and less than 0.5)
152 (ICVYTFDAHAHFLHAALTK(COCH2)I; thioether 2-19 (inferred)) [compound 152] | C (0.1 or more and less than 0.5)
153 (ICVYTFDAHAHYLHAALTK(COCH2)I; thioether 2-19 (inferred)) [compound 153] | C (0.1 or more and less than 0.5)
154 (ICVYTFDAHAHWLHAALTK(COCH2)I; thioether 2-19 (inferred)) [compound 154] | C (0.1 or more and less than 0.5)
155 (ICVYTFDAHAHNLHAALTK(COCH2)I; thioether 2-19 (inferred)) [compound 155] | A (0.7 or more)
156 (ICVYTFDAHAHQLHAALTK(COCH2)I; thioether 2-19 (inferred)) [compound 156] | A (0.7 or more)
157 (ICVYTFDAHAHTLHAALTK(COCH2)I; thioether 2-19 (inferred)) [compound 157] | A (0.7 or more)
158 (ICVYTFDAHAHDLHAALTK(COCH2)I; thioether 2-19 (inferred)) [compound 158] | A (0.7 or more)
159 (ICVYTFDAHAHELHAALTK(COCH2)I; thioether 2-19 (inferred)) [compound 159] | A (0.7 or more)
160 (ICVYTFDAHAHRLHAALTK(COCH2)I; thioether 2-19 (inferred)) [compound 160] | C (0.1 or more and less than 0.5)
161 (ICVYTFDAHAHHLHAALTK(COCH2)I; thioether 2-19 (inferred)) [compound 161] | C (0.1 or more and less than 0.5)
162 (ICVYTFDAHAHSAHAALTK(COCH2)I; thioether 2-19 (inferred)) [compound 162] | A (0.7 or more)
163 (ICVYTFDAHAHSGHAALTK(COCH2)I; thioether 2-19 (inferred)) [compound 163] | C (0.1 or more and less than 0.5)
164 (ICVYTFDAHAHSPHAALTK(COCH2)I; thioether 2-19 (inferred)) [compound 164] | C (0.1 or more and less than 0.5)
165 (ICVYTFDAHAHSIHAALTK(COCH2)I; thioether 2-19 (inferred)) [compound 165] | A (0.7 or more)
166 (ICVYTFDAHAHSVHAALTK(COCH2)I; thioether 2-19 (inferred)) [compound 166] | A (0.7 or more)
167 (ICVYTFDAHAHSFHAALTK(COCH2)I; thioether 2-19 (inferred)) [compound 167] | A (0.7 or more)
